Test results taken from patent publication US20140140998.

What was measured:
[1] = tested on: TβRI intracellular domain fragment (TβRI ICD), about 34 kDa
[2] = tested on: TM-V129A/I130A TβRI mutant (HA-tagged, in HA-caTβRI)

Sequence of TβRI intracellular domain fragment (TβRI ICD), about 34 kDa (chain, as listed by the source): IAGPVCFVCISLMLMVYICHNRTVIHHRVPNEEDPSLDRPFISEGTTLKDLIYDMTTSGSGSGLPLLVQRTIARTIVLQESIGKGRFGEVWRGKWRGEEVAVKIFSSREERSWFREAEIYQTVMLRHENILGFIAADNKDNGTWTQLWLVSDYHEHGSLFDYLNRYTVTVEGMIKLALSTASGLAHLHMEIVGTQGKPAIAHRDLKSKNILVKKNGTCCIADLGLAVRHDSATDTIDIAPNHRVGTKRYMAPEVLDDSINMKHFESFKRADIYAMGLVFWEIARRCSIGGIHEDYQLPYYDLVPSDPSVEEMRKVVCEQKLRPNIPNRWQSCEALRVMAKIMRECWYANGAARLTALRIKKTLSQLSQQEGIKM

p300, endogenous
acetylation of the TβRI ICD (immunoblot with anti-acetyl-lysine) [1]: acetylation of the TβRI ICD was verified using an antibody specific for acetyl-lysine

Presenilin 1 (PS1), endogenous
production of TβRI ICD (immunoblot) [2]: Production of TβRI ICD was observed only in the TGF-treated cells transfected with caTβRI construct
